Non-standard residues stand in square brackets, D forms with d. No end group written: not given here. Ahx = NCCCCCC(=O)O
Key:
[1] = biological target: T1, full-length ApoE in human brain extract from Alzheimer's disease patients (human, UniProt P02649 19-317); test: Western blot of AD brain RIPA 2% SDS extract; monoclonal antibody at 2 ug/ml as primary antibody
T1 construct: mature; Endogenous protein on Western blot or in solution (IP); also called ApoE full-length protein

[2] = biological target: T2, recombinant full-length ApoE4 (aa 1-299; SEQ ID NO:45; Abcam cat. no. ab50243) (human, UniProt P02649 19-317); test: direct ELISA; proteins coated at 0.1 uM, BSA peptides at 1 ug/ml; antibody in 3-fold dilutions from 3000 ng/ml; blank reduced OD 450 nm
T2 construct: Bought protein; also called recombinant ApoE4 full-length protein
Method: (§1) Selectivity evaluation of purified monoclonal antibodies by direct ELISA: The direct ELISA described below was used to evaluate the binding selectivity of the purified monoclonal antibodies produced in Example 14.
(§2) The screening was performed according to standard ELISA protocols. Briefly, 1 μg/ml solutions of BSA-conjugated neo-epitope peptides and negative control peptide, and 0.1 μM recombinant C-terminal ApoE fragment and full-length ApoE (Abcam, cat. no. ab50243) were prepared by dilution in PBS. 50 μl/well were added to an ELISA half-area 96 well microtiter plate, and the plate was sealed with adhesive sealer and incubated over night at 4° C. After discarding the solution, the plates were blocked with 150 μl/well of protein-free blocking solution (Pierce) for 1 h at room temperature with shake (600-900 rpm). The plates were washed four times with washing buffer containing 0.28 mM NaH₂PO₄, 2.5 mM Na₂HPO₄, 150 mM NaCl, 0.1% TWEEN®-20 and 0.0075% Kathon CG. Purified monoclonal antibodies of interest were 3-fold serially diluted with a starting dilution at 3 μg/ml (mixed 1:2 with dilution buffer (PBS with 0.1% BSA and 0.05% TWEEN®-20)). An anti-ApoE C-terminal antibody was used as a reference antibody (ApoE E-8 mouse monoclonal, Santa Cruz Biotechnology, cat. no. sc-393302). 50 μl/well were added into the ELISA plates and incubated for 2 h at room temperature with shake (600-900 rpm). The plates were washed four times as described previously. […] After another wash (as described previously), 50 μl/well of K-Blue® aqueous substrate (Neogen) were added, and the reaction was stopped after 5-15 min with 50 μl/well of 0.5 M […]. The optical density at 450 nm was read using an ELISA reader (Tecan).

[3] = biological target: T3, G200 N-terminal neo-epitope peptide GQPLQE-Acp-C (SEQ ID NO:50) conjugated to BSA (human, not fully specified (residue 8); printed as GQPLQE-Acp-C; also: C-terminal Cys conjugated to BSA carrier); test: as above
T3 construct: also called G200-BSA peptide; G200-peptide
T3 peptide: GQPLQE[Ahx]C
Method: as §1, §2

[4] = biological target: T4, L198 N-terminal neo-epitope peptide LAGQPLQE-Acp-C (SEQ ID NO:54) conjugated to BSA (human, not fully specified (residue 10); printed as LAGQPLQE-Acp-C; also: C-terminal Cys conjugated to BSA carrier); test: direct ELISA after limiting dilution
T4 construct: BSA carrier
T4 peptide: LAGQPLQE[Ahx]C

[5] = biological target: T5, recombinant C-terminal ApoE fragment L198-HIS (ApoE-L198-H299-10xHIS) (human, UniProt P02649 216-317); test: direct ELISA, L198-HIS coated at 0.1 µM
T5 construct: also called L198-HIS fragment
Method: as §1, §2

[6] = biological target: T6, L198 N-terminal neo-epitope peptide LAGQPL-Acp-C (SEQ ID NO:52) conjugated to BSA (human, not fully specified (residue 8); printed as LAGQPL-Acp-C; also: C-terminal Cys conjugated to BSA carrier); test: direct ELISA, L198-BSA peptide coated at 1 µg/ml
T6 construct: BSA carrier; also called L198-BSA peptide
T6 peptide: LAGQPL[Ahx]C
Method: as §1, §2

T2 sequence (P02649 19-317 C130R limits assumed): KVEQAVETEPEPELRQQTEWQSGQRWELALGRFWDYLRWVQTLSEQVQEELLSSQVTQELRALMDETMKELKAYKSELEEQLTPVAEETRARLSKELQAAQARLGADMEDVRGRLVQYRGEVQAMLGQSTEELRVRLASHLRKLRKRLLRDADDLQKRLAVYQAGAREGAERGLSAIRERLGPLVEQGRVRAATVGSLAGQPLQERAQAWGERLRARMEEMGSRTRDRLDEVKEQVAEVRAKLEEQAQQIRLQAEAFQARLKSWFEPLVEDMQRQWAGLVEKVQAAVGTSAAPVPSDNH
T1 sequence (P02649 19-317): as the sequence (P02649 19-317 C130R limits assumed) above, with R112C counted along it
T5 sequence (P02649 other isoform, or with tags, fused parts or gaps limits assumed): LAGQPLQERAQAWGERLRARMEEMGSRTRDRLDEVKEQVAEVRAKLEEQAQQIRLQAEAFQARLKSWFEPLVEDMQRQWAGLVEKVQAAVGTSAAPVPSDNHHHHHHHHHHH

binding result [1]: no binding (tested: 2 ug/ml (text)) | binding result [2]: no binding (tested: 3000 ng/ml) | binding result [3]: no binding (tested: 3000 ng/ml) | binding result [4]: binds | EC50 [5]: 0.015 µg/mL | EC50 [6]: 0.0247 µg/mL
B1: 15F8, monoclonal anti-L198 antibody (antibody, IgG2c, V domains shown)
VH: EVKLEESGGGLVHPGGSMKLSCVGSGFTFSNYWMNWVRQSPEKGLEWVAQIKLRSDNYATHYAESVKGKFTISRDDAKSSVYLQMDNLRAEDTGIYYCSHHYLDSGGYFDVWGTGTSVTVSS
VL: DIVMTQSQKFMSTSVGDRVSVTCKASQNVGINVAWYQDKPGQSPKGLILSASYRYSGVPDRFTGSGSGTDFTLTISNVQSEDLAEYFCQQYNSYPYTFGGGTKLEIK

From US20220242939A1 (BIOARCTIC, published 2022)
